We go through four molecules from patent US20220289837A1 (VIB VZW, published 2022).

Series [1] deals with Purified human wt-CFTR (His10-SUMO*-CFTRFLAG-EGFP), PKA phosphorylated (human, UniProt P13569 1-1480, PKA phosphorylated (sites not given)). Description: cell-based or functional assay.
Series [2] deals with T1, 2PT-NBD1 (human CFTR nucleotide-binding domain 1, residues 387-646, with S492P, A534P, I539T) (human, UniProt P13569 388-646, biotinylated for the ELISA (sites not given)). Nature of the series: cell-based or functional assay.
T1 sequence (P13569 388-646 V470M/S492P/A534P/I539T limits assumed): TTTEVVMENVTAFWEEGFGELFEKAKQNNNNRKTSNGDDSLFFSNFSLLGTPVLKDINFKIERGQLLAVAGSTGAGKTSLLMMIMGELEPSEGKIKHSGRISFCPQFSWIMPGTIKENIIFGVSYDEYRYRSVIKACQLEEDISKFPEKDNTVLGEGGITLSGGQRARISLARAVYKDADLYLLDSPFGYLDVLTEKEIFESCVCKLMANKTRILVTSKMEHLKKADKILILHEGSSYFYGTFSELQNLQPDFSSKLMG
Series [3] addresses T1, 2PT-NBD1 (human CFTR nucleotide-binding …). Description: ELISA, biotinylated 2PT-NBD1 on avidin-coated plate, D12 titrated. The source says:
(§1) The location of these nanobodies completely overlaps (FIG. 11a) with that of the C-terminal regulatory extension (RE) observed in previously published structures of NBD1^{[25,26].} The RE segment, comprising residues 654-673 was removed from the 2PT-NBD1 construct used for immunization and characterization. While the functional role of the RE is still unclear, it has been described to be a very mobile domain^{[27]}. […] This is consistent with RE being a dynamic region of CFTR.
(§2) For dose-response assays, Nunc MaxiSorp 96-well plates (ThermoScientific), were coated with 5 μg/ml NeutrAvidin Biotin-Binding protein (ThermoScientific) overnight at 4° C. and blocked 2 h at room temperature (RT) with 2% milk in phosphate-buffered saline (PBS). Each new reagent addition was preceded by three washes with 200 μl of NBD1 buffer (20 mM HEPES pH 7.5, 150 mM NaCl, and 10% (w/v) glycerol, 10% (w/v) ethylene glycol, 2 mM ATP, 3 mM MgCl₂). Then, biotinylated purified NBD1 proteins at 5 μg/ml were immobilized 30 min at RT followed by 1 h RT incubation with 100 μl various concentrations (0-20 μg/ml) of purified nanobodies. […] 50 μl of 1-Step UltraTMB-ELISA (ThermoScientific) was used as a substrate for the peroxidase and intensity of the reaction was proportional to absorbance measured at 450 nm with SynergyMx (BioTek) after addition of 50 μl H₂SO₄ at 1M.
On the technique in general: ELISA stands for enzyme-linked immunosorbent assay.

Series [4] concerns the target T2, 2PT-NBD1-RE (2PT-NBD1 with residues 387-678, containing the regulatory extension) (human, UniProt P13569 387-678, biotinylated for the ELISA (sites not given)). Nature of the series: ELISA, biotinylated 2PT-NBD1-RE on avidin-coated plate, D12 titrated.
Description: as §1, §2

The next series has as its target T3, F508del-2PT-NBD1 (human, UniProt P13569 388-646, biotinylated for the ELISA (sites not given)).
T3 construct: also called F508del-2PT-NBD1 mutant
Nature of the series: ELISA, biotinylated F508del-2PT-NBD1 on avidin-coated plate, nanobody titrated, anti-His detection. The procedure:
(§3) (a) Nanobody binding to 2PT-NBD1 measured by ELISA. Biotinylated 2PT-NBD1 was immobilized on avidin-coated plates and incubated with increasing concentration of each nanobody. Binding of nanobody was followed by immunodetection of the His-tag (see Methods). Representative curve of 3 independent experiments is shown. Error bars represent the standard deviation (SD) of duplicates. Data were normalized to maximum signal for each nanobody separately. (b) Nanobody binding to F508del-2PT-NBD1 measured by ELISA as described in panel a. (c) Nanobody T4 binding to 2PT-NBD1 and F508del-2PT-NBD1. Data were normalized to maximum signal of T4 binding to 2PT-NBD1. (d) Nanobody T8 binding to 2PT-NBD1 and F508del-2PT-NBD1. Data were normalized to maximum signal of T8 binding to 2PT-NBD1.
(§4) For dose-response assays, Nunc MaxiSorp 96-well plates (ThermoScientific), were coated with 5 μg/ml NeutrAvidin Biotin-Binding protein (ThermoScientific) overnight at 4° C. and blocked 2 h at room temperature (RT) with 2% milk in phosphate-buffered saline (PBS). Each new reagent addition was preceded by three washes with 200 μl of NBD1 buffer (20 mM HEPES pH 7.5, 150 mM NaCl, and 10% (w/v) glycerol, 10% (w/v) ethylene glycol, 2 mM ATP, 3 mM MgCl₂). Then, biotinylated purified NBD1 proteins at 5 μg/ml were immobilized 30 min at RT followed by 1 h RT incubation with 100 μl various concentrations (0-20 μg/ml) of purified nanobodies. Signal detection was followed using His-tag specific antibody (Invitrogen, catalogue number: MA1-135, 1:3000 dilution) to detect the nanobodies and secondary antibody anti-mouse coupled to horse radish peroxidase (HRP) (Millipore, catalogue number: AP308P, 1:5000 dilution). 50 μl of 1-Step UltraTMB-ELISA (ThermoScientific) was used as a substrate for the peroxidase and intensity of the reaction was proportional to absorbance measured at 450 nm with SynergyMx (BioTek) after addition of 50 μl H₂SO₄ at 1M.

Series [5] addresses T1, 2PT-NBD1 (human CFTR nucleotide-binding …). Description: ELISA, biotinylated 2PT-NBD1 on avidin-coated plate, nanobody titrated, anti-His detection; column head 'pEC50 (M)'. How it is done:
as §3, §4

For series [6] the target is unchanged. Description: ITC, nanobody titrated into 2PT-NBD1 at 20 °C, one-site model. The procedure: (§5) Isothermal titration calorimetry (ITC) was used to characterize the thermodynamic parameters of the binding (FIG. 1e and FIG. 9). […] These KD values are similar to those measured for other in vivo matured camelid heavy-chain antibodies interacting with their ligands^{[20]}. The thermodynamic parameters of the interaction of nanobodies with 2PT-NBD1 were determined based on these ITC measurements (FIG. 1e and FIG. 9).
(§6) Interactions between nanobodies and 2PT-NBD1 was carried out on NanoITC system (TA Instruments) in 0.165 ml cells at 20° C., 300 rpm syringe stirring. Proteins were extensively dialyzed in 20 mM Hepes buffer pH 7.5, 150 mM NaCl, 10% (w/v) glycerol, 10% (w/v) ethylene glycol, 2 mM ATP and 3 mM MgCl₂ for 16 h at 4° C. Heat of dilution from control experiments of each nanobody titrated into buffer was subtracted from the titration into 2PT-NBD1. Data were integrated analyzed with Origin 7.0 software (Origin Lab Corp.).
Background: In ITC the heat of successive injections is recorded.

Series [7] has the same target. Nature of the series: ELISA, biotinylated 2PT-NBD1 on avidin-coated plate, T27 titrated.
Description: as §1, §2

The target of series [8] is T2, 2PT-NBD1-RE (2PT-NBD1 with residues …). Description: ELISA, biotinylated 2PT-NBD1-RE on avidin-coated plate, T27 titrated.
Description: as §1, §2

In series [9] the target is T1, 2PT-NBD1 (human CFTR nucleotide-binding …). Description: isothermal titration calorimetry, nanobody titrated into 2PT-NBD1 at 20 °C, one-site model. The procedure: as §5, §6
Series [10] addresses T4, 2PT-F508del-CFTR expressed in BHK-21 cells (human, UniProt P13569 1-1480, I539T; S492P; A534P; F508del).
T4 construct: Full-length F508del CFTR stabilized by the three point mutations; permeabilized cells in flow cytometry
Nature of the series: flow cytometry on permeabilised BHK-21 cells expressing 2PT-F508del-CFTR, anti-tag antibody and Alexa Fluor 488 secondary. The source says: Graph depicts one representative of at least three independent experiments. (FIG. 4F) Average median fluorescence (fold over negative control) for each of the three representative nanobodies as illustrated in (FIG. 4D) and (FIG. 4E). Quantification of at least 3 independent experiments (±SEM). (g) Immunoblot of CFTR from solubilized BHK-21 cells pulled-down with His-tagged nanobodies, including a non-CFTR nanobody as a control. Eluted nanobodies-CFTR complexes were separated by SDS-PAGE and presence of CFTR was detected with mAb 596 antibody after immunoblotting. Arrows indicate the mature (band C) and immature (band B) forms of CFTR. Representative of at least 3 independent experiments. (FIG. 4H) Flow cytometry analysis of nanobodies T2a, T8 and G3a on BHK-21 cells expressing 2PT-F508del showing increased labelling for T2a and G3a, but not T8. (FIG. 4I) Quantification of data illustrated in […]. Average of 3 independent experiments (±SEM).
Parental BHK-21 cells (ATCC; CCL-10) and cells stably overexpressing human wt-CFTR^{[43,44,47]} or 2PT-F508del-CFTR, as described above, were permeabilized with 0.01% n-Dodecyl-β-D-Maltopyranoside β-DDM—Inalco) at least for 2 h on ice. In the meantime, cells were incubated with 50 μg/ml nanobodies and DRAQ7 (0.3 μM—Biostatus) to monitor the permeabilization state. Nanobody binding was detected by using His-tag specific antibody (Invitrogen, catalogue number MA1-135, 1 μg/ml) or Myc-tag specific antibody (Invitrogen, catalogue number 13-2500, 2 μg/ml) and then anti-mouse-Alexa Fluor 488 (Invitrogen, catalogue number A11001, 1.3 μg/ml) at least for 30 min on ice. Cells were washed one time between each step by centrifugation (200×g for 5 min at 4° C.). All incubations (100 μl) and washes (1.5 ml) were performed in PBS with 6% fetal bovine serum (FBS) and 0.01%13-DDM on ice. Cells fluorescence was measured with Gallios Flow Cytometer (Beckman Coulter). Data were analyzed with Kaluza software.

The target of series [11] is T5, Stabilized human CFTR (stab-CFTR: 2PT/ΔRI/R1048A_1172X) (human, UniProt P13569 1-1171, limits assumed). Description: cell-based or functional assay.
T5 sequence (P13569 other isoform, or with tags, fused parts or gaps R1048A R1048A limits assumed): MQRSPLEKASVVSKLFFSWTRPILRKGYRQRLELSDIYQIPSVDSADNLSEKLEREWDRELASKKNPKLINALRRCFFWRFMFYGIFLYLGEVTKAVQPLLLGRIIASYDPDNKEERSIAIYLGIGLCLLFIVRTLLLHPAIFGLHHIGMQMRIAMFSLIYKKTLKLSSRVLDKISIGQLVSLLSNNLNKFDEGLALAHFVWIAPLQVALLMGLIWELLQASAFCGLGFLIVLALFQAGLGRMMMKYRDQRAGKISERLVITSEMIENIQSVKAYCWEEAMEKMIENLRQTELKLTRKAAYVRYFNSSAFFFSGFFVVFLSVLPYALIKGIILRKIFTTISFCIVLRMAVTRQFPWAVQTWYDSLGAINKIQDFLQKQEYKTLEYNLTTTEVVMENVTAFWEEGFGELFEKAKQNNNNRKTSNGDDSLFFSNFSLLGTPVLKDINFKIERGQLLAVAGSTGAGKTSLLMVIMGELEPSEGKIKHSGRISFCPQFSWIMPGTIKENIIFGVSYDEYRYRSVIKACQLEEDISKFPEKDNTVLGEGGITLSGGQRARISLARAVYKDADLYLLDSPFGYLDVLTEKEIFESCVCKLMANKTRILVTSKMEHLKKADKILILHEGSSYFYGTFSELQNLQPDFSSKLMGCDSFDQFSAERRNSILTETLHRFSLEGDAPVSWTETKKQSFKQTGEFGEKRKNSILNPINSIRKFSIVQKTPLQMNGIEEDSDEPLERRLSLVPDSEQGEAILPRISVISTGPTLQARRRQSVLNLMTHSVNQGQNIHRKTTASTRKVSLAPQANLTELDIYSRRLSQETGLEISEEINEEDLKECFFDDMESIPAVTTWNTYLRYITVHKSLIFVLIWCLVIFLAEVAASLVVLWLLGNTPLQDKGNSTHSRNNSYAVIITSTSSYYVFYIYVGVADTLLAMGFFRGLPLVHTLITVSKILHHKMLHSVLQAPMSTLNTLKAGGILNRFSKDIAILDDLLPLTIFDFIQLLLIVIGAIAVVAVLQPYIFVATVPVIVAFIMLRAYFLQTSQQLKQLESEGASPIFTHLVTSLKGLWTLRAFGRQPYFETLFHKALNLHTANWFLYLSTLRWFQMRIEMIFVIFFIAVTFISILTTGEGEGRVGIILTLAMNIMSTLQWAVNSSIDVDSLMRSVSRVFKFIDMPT
Series [12] addresses T5, Stabilized human CFTR (stab-CFTR: …). Description: cell-based or functional assay. The source holds these as a separate data set.

T3 sequence (P13569 other isoform, or with tags, fused parts or gaps limits assumed, stated change not applied): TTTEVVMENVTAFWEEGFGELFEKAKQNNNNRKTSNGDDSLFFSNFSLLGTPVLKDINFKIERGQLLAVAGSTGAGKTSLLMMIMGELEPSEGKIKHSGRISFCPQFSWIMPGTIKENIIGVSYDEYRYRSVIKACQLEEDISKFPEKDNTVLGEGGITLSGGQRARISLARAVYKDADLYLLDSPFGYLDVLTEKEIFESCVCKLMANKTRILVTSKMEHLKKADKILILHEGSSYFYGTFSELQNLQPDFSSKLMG
Sequence of Purified human wt-CFTR (His10-SUMO*-CFTRFLAG-EGFP), PKA phosphorylated (P13569 whole entry, the tested form may be a part): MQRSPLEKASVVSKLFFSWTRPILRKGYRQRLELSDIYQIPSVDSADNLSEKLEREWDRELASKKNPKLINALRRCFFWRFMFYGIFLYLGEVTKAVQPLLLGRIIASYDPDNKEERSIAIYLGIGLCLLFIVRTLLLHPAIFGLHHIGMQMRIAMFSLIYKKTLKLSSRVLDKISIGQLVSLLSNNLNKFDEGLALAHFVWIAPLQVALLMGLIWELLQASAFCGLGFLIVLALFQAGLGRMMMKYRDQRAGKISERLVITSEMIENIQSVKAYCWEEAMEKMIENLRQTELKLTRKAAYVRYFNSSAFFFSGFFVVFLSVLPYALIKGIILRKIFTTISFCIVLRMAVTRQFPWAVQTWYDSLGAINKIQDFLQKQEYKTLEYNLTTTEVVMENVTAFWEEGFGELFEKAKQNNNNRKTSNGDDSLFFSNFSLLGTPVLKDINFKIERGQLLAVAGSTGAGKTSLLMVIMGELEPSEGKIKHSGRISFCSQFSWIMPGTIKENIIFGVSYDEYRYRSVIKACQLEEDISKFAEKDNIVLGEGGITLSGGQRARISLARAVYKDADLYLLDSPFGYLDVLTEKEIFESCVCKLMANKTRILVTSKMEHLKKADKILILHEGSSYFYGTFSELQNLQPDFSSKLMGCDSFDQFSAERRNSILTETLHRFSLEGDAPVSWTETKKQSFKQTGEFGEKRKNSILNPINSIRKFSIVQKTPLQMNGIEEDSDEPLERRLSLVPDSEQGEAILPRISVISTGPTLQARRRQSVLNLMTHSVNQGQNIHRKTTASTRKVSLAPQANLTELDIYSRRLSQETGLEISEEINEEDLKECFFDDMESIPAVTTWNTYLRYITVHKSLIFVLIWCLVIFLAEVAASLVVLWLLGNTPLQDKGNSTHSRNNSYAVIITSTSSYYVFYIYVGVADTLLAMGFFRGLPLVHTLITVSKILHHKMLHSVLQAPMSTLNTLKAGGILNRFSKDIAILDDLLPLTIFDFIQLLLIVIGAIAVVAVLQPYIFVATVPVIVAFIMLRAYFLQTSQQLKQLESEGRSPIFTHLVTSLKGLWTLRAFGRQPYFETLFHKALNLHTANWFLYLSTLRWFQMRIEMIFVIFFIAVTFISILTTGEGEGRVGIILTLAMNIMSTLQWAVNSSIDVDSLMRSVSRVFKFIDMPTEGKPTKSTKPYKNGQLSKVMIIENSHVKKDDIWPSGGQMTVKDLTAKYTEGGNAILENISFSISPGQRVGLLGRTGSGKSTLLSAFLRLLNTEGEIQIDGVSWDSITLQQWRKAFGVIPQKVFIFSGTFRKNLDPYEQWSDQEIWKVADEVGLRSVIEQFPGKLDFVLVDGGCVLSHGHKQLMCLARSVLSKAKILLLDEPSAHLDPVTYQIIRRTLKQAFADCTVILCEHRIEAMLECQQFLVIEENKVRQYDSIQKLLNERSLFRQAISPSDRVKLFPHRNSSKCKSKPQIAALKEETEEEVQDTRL
T2 sequence (P13569 other isoform, or with tags, fused parts or gaps limits assumed): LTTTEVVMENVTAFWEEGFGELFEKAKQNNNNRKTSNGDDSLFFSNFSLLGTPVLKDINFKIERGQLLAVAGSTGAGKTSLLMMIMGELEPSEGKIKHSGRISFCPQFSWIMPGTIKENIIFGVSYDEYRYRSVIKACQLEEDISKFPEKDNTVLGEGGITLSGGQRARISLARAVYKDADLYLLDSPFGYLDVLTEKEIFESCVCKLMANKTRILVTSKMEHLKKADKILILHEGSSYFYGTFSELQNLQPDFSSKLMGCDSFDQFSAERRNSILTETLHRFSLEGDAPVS
T4 sequence (P13569 other isoform, or with tags, fused parts or gaps I539T/S492P/A534P/F508del): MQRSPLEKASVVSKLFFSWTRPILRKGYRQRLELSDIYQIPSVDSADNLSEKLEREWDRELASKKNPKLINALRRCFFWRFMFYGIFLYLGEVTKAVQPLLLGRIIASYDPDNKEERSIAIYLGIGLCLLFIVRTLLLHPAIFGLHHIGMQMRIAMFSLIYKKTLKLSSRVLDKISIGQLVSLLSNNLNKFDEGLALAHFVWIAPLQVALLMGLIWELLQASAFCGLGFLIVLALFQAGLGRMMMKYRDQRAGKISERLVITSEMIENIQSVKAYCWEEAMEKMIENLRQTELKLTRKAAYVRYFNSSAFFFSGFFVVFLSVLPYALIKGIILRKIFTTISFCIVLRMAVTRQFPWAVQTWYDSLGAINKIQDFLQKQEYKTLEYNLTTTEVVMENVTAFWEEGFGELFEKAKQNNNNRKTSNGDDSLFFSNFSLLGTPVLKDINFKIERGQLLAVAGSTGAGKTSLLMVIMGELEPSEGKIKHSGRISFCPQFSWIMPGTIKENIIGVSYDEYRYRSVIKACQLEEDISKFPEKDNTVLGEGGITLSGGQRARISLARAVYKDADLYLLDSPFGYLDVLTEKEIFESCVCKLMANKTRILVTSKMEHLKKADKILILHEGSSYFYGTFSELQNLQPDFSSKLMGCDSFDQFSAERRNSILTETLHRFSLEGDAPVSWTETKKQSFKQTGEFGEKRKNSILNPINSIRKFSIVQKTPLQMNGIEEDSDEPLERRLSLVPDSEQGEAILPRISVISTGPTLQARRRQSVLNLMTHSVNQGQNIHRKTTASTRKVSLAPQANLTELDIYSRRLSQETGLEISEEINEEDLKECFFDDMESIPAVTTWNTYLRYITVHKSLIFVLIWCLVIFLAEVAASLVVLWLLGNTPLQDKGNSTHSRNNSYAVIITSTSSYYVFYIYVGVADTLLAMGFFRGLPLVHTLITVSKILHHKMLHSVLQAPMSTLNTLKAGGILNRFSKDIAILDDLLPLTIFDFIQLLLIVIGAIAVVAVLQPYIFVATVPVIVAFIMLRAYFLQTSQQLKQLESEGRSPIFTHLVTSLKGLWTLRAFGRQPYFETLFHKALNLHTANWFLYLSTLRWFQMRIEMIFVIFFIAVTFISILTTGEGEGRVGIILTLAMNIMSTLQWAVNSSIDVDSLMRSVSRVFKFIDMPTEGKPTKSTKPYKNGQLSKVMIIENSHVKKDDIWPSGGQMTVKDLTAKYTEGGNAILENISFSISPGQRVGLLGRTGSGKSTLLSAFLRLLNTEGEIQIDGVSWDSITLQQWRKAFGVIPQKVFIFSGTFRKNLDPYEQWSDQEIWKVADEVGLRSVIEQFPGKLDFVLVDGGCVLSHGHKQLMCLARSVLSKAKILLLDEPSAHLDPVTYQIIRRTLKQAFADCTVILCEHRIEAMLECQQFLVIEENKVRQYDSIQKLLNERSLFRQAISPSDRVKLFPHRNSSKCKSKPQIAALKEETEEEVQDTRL

B1: Nanobody D12 (VHH, not shown: small tags and cut ends)
VHH: QVQLQESGGGLVQAGSSLRLACAATGSIRSINNMGWYRQAPGKQRGMVAIITRVGNTDYADSVKGRFTISRDNAKNTVYLQMNSLKPEDTATYYCHAEITEQSRPFYLTDDYWGQGTQVTVSS
notes: Llama nanobody raised against 2PT-NBD1; produced in E. coli periplasm; also called Nb D12; D12 Nb
With B1, in series [1], the “ATPase activity (% of PKA-phosphorylated CFTR)” value was found to be 50%. In addition, in series [2], the “increase of Tm (thermal shift assay, DSF)” value worked out at 13.8 °C. In addition, the “EC50 (read off the curve)” value is around 50 nM in [3], around 80 nM in series [4] and around 10 nM with F508del-2PT-NBD1. Moreover, the pEC50 in series [5] was 7.6.

B2: Nanobody T27 (VHH, not shown: small tags and cut ends)
VHH: QVQLQESGGGLEQPGGSLRLSCATSGVIFGINAMGWYRQAPGKQRELVATFTSGGSTNYADFVEGRFTISRDNAKNTVYLQMNGLRPEDTAVYYCHATVVVSRYGLTYDYWGQGTQVTVSS
notes: Llama nanobody; also called NbT27; T27 Nb
As to B2, the “ATPase activity (% of PKA-phosphorylated CFTR)” value in [1] came to 30%. In addition, the “increase of Tm (thermal shift assay, DSF)” value in series [2] stood at 11.9 °C. The same molecule showed a ΔG in [6] of -10.2 kcal/mol. Further, the ΔH in series [6] was -12.1 kcal/mol. Further, the “EC50 (read off the curve)” value in series [7] was around 3 nM; in series [8] it was around 3 nM; with F508del-2PT-NBD1, around 2 nM. Further, the affinity in [9], expressed as Kd, was 25 nM. For the same molecule, the pEC50 in series [5] worked out at 8.7.

B3: Nanobody G3a (VHH, not shown: small tags and cut ends)
VHH: QVQLQESGGGLVQAGGSLRLSCTASGRAFSWYVMGWFRQAPGKEREFVATVSGNGSRRDYADSVKGRFTISRDNAKNTVYLQMNSLKPEDTAVYYCAASSTYYYTDPEKYDYWGQGTQVTVSS
notes: Llama nanobody, non-stabilizing; also called Nb G3a; G3a Nb
Turning to B3, in series [6], the ΔG was -7.98 kcal/mol and the ΔH is -11.4 kcal/mol. This molecule also registered a Kd in series [9] of 1100 nM. The “EC50 (read off the curve)” value with F508del-2PT-NBD1 was around 2000 nM. Besides, in series [5], the negative-log EC50 (pEC50) turned out to be 5.8. Besides, the binding result in [10] is on record as “binds”.

B4: Nanobody T4 (VHH, not shown: small tags and cut ends)
VHH: QVQLQESGGGLVQAGGSLRLSCAASGSTFAIIAMGWYRQAPGKQRELVAVISTGDTRYADSVKGRFTISRDNAKNTVYLQMDSLRPEDTAVYYCNAAVQVRDYRNYWGQGTQVTVSS
On to B4, for which the “thermostabilization (nanoDSF, Tm)” value in [11] was 8 °C. In [12], the “Tm of stab-CFTR in complex with the nanobody (nanoDSF, first derivative of 350 nm fluorescence); 'stab-CFTR (51.4°C)', 'T4 (73.8°C)' alone” value worked out at 59.4 °C.

For orientation: EC50 (read off the curve) means the concentration giving half of the maximal effect. A word on the pEC50: it is the negative decadic logarithm of the EC50, by convention in mol/L. For orientation: Kd means the equilibrium constant for the complex coming apart. A high value points to lower affinity.
